According to the supplement of paper PMC10567573:

B1: ATL3 (parent)
chain: YGLQGGMAFLDKRLQVKEHQHEEI

Variants of: B1
Assay: protein stability index of a GFP-peptide fusion (GPS, HEK-293T) (PSI 1-6); higher = more stable
Settings: c terminus: a fixed tail appended
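Also: lentivirally expressed fusions sorted by FACS into six bins by GFP to DsRed ratio, PSI derived from sequencing read proportions per bin multiplied by bin number.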

Variant	protein stability index
YGLQGGMAFLDKRSQVKEHQHEEI [L14S]	2.57
YGLQGGMAFLDKRRQVKEHQHEEI [L14R]	2.48
YGLQGGMAFLDKRWQVKEHQHEEI [L14W]	2.82
YGLQGGMAFLDKALQVKEHQHEEI [R13A]	2.47
YGLQGGMAFLDKQLQVKEHQHEEI [R13Q]	1.86
YGLQGGMAFLDKFLQVKEHQHEEI [R13F]	2.73
YGLQGGMAFLDKHLQVKEHQHEEI [R13H]	2.26
YGLQGGMAFLDKDLQVKEHQHEEI [R13D]	1.52
YGLQGGMAFLDKYLQVKEHQHEEI [R13Y]	1.34
YGLQGGMAFLDKSLQVKEHQHEEI [R13S]	1.98
YGLQGGMAFLDKELQVKEHQHEEI [R13E]	1.59
YGLQGGMAFLDKILQVKEHQHEEI [R13I]	1.66
YGLQGGMAFLDKMLQVKEHQHEEI [R13M]	2.04
YGLQGGMAFLDKGLQVKEHQHEEI [R13G]	1.28
YGLQGGMAFLDKKLQVKEHQHEEI [R13K]	2.84
YGLQGGMAFLDKPLQVKEHQHEEI [R13P]	1.93
YGLQGGMAFLDKLLQVKEHQHEEI [R13L]	2.3
YGLQGGMAFLDKWLQVKEHQHEEI [R13W]	1.73
YGLQGGMAFLDKTLQVKEHQHEEI [R13T]	2.28
YGLQGGMAFLDKCLQVKEHQHEEI [R13C]	2.56
YGLQGGMAFLDKVLQVKEHQHEEI [R13V]	2.14
YGLQGGMAFLDKNLQVKEHQHEEI [R13N]	2.87
YGLQGGMAFDDKRLQVKEHQHEEI [L10D]	4.11
YGLQGGMAFADKRLQVKEHQHEEI [L10A]	3.49

Variant	protein stability index
YGLQGGMAFQDKRLQVKEHQHEEI [L10Q]	1.65
YGLQGGMAFCDKRLQVKEHQHEEI [L10C]	3.07
YGLQGGMAFHDKRLQVKEHQHEEI [L10H]	1.98
YGLQGGMAFFDKRLQVKEHQHEEI [L10F]	2.03
YGLQGGMAFYDKRLQVKEHQHEEI [L10Y]	1.68
YGLQGGMAFPDKRLQVKEHQHEEI [L10P]	3.39
YGLQGGMAFVDKRLQVKEHQHEEI [L10V]	2.57
YGLQGGMAFGDKRLQVKEHQHEEI [L10G]	1.89
YGLQGGMAFNDKRLQVKEHQHEEI [L10N]	2.05
YGLQGGMAFWDKRLQVKEHQHEEI [L10W]	1.96
YGLQGGMAFEDKRLQVKEHQHEEI [L10E]	3.82
YGLQGGMAFKDKRLQVKEHQHEEI [L10K]	1.62
YGLQGGMAFMDKRLQVKEHQHEEI [L10M]	1.54
YGLQGGMAFTDKRLQVKEHQHEEI [L10T]	2.35
YGLQGGMAFLDVRLQVKEHQHEEI [K12V]	2.62
YGLQGGMAFLDLRLQVKEHQHEEI [K12L]	3.83
YGLQGGMAFLDYRLQVKEHQHEEI [K12Y]	2.73
YGLQGGMAFLDERLQVKEHQHEEI [K12E]	1.99
YGLQGGMAFLDMRLQVKEHQHEEI [K12M]	2.89
YGLQGGMAFLDDRLQVKEHQHEEI [K12D]	1.75
YGLQGGMAFLDNRLQVKEHQHEEI [K12N]	2.91
YGLQGGMAFLDCRLQVKEHQHEEI [K12C]	1.49
YGLQGGMAFLDFRLQVKEHQHEEI [K12F]	3.37
YGLQGGMAFLDWRLQVKEHQHEEI [K12W]	2.44

Variant	protein stability index
YGLQGGMAFLDSRLQVKEHQHEEI [K12S]	2.26
YGLQGGMAFLDIRLQVKEHQHEEI [K12I]	3.88
YGLQGGMAFLDQRLQVKEHQHEEI [K12Q]	1.81
YGLQGGMAFLDHRLQVKEHQHEEI [K12H]	2.03
YGLQGGMAFLDARLQVKEHQHEEI [K12A]	1.93
YGLQGGMAFLDTRLQVKEHQHEEI [K12T]	1.79
YGLQGGMAFLDGRLQVKEHQHEEI [K12G]	2.22
YGLQGGMAFLDPRLQVKEHQHEEI [K12P]	1.88
YGLQGGMAFLWKRLQVKEHQHEEI [D11W]	2.01
YGLQGGMAFLLKRLQVKEHQHEEI [D11L]	2.37
YGLQGGMAFLQKRLQVKEHQHEEI [D11Q]	1.72
YGLQGGMAFLEKRLQVKEHQHEEI [D11E]	2.9
YGLQGGMAFLYKRLQVKEHQHEEI [D11Y]	2.74
YGLQGGMAFLMKRLQVKEHQHEEI [D11M]	2.22
YGLQGGMAFLCKRLQVKEHQHEEI [D11C]	2.94
YGLQGGMAFLNKRLQVKEHQHEEI [D11N]	1.81
YGLQGGMAFLGKRLQVKEHQHEEI [D11G]	2.76
YGLQGGMAFLIKRLQVKEHQHEEI [D11I]	1.85
YGLQGGMAFLKKRLQVKEHQHEEI [D11K]	2.27
YGLQGGMAFLHKRLQVKEHQHEEI [D11H]	1.61
YGLQGGMAFLPKRLQVKEHQHEEI [D11P]	2.33
YGLQGGMAFLAKRLQVKEHQHEEI [D11A]	1.65
YGLQGGMAFLVKRLQVKEHQHEEI [D11V]	2.84
YGLQGGMAFLFKRLQVKEHQHEEI [D11F]	1.78

Variant	protein stability index
YGLQGGMAFLRKRLQVKEHQHEEI [D11R]	1.95
YGLQGGMAFLSKRLQVKEHQHEEI [D11S]	1.91
YGLQGGMAFLTKRLQVKEHQHEEI [D11T]	2.16
YGLQGGAAFLDKRLQVKEHQHEEI [M7A]	1.38
YGLQGGDAFLDKRLQVKEHQHEEI [M7D]	2.16
YGLQGGNAFLDKRLQVKEHQHEEI [M7N]	2.23
YGLQGGHAFLDKRLQVKEHQHEEI [M7H]	1.75
YGLQGGCAFLDKRLQVKEHQHEEI [M7C]	2.48
YGLQGGVAFLDKRLQVKEHQHEEI [M7V]	2.52
YGLQGGEAFLDKRLQVKEHQHEEI [M7E]	3.23
YGLQGGYAFLDKRLQVKEHQHEEI [M7Y]	1.93
YGLQGGLAFLDKRLQVKEHQHEEI [M7L]	2.66
YGLQGGPAFLDKRLQVKEHQHEEI [M7P]	2.18
YGLQGGGAFLDKRLQVKEHQHEEI [M7G]	2.02
YGLQGGWAFLDKRLQVKEHQHEEI [M7W]	1.47
YGLQGGQAFLDKRLQVKEHQHEEI [M7Q]	1.03
YGLQGGTAFLDKRLQVKEHQHEEI [M7T]	1.7
YGLQGGSAFLDKRLQVKEHQHEEI [M7S]	2.05
YGLQGGFAFLDKRLQVKEHQHEEI [M7F]	3.3
YGLQGGRAFLDKRLQVKEHQHEEI [M7R]	2.24
YGLQGGKAFLDKRLQVKEHQHEEI [M7K]	3.76
YGLQGGIAFLDKRLQVKEHQHEEI [M7I]	2.28
